For this test, the target named is FGF-21 receptor. Kind of test: cell-based or functional assay.

Consider 1 substance from patent publication US20120238496A1.

For the substance “recombinant human FGF-21 (from UniProt Q9NSA1 29-209) (ligand)”, the Glucose uptake CPM, 3T3-L1 fat cells, protein at 0 nM (baseline) amounted to 1880 CPM; the Glucose uptake CPM, 3T3-L1 fat cells, protein at 0.03 nM was 1800 CPM; the Glucose uptake CPM, 3T3-L1 fat cells, protein at 0.15 nM was 2110 CPM; the Glucose uptake CPM, 3T3-L1 fat cells, protein at 0.8 nM came to 2200 CPM. This substance also yielded a Glucose uptake CPM, 3T3-L1 fat cells, protein at 4 nM of 3300 CPM; a Glucose uptake CPM, 3T3-L1 fat cells, protein at 20 nM of 5130 CPM; a Glucose uptake CPM, 3T3-L1 fat cells, protein at 100 nM of 5320 CPM.
